Data set [1] in a line: Thermostability, temperature of aggregation (ProteoStat Thermal Shift). Format: physicochemical. The arrangement: key to Tagg: temperature in °C. The settings on record: for Tagg (pH 7.1): Table E31D, heated 25° C. to 95° C. As to the method: The thermostability of proteins in a buffer cocktail of Citric Acid and Dibasic Sodium Phosphate over a pH range of 2.8 to 7.1 (preparation described above in Table E31B) was determined using the ProteoStat® Thermal Shift Stability Kit (Enzo Life Sciences) according to the manufacturer's standard protocol. Briefly, protein solutions (˜10 mg/ml) containing 1× ProteoStat TS Detection Reagent were heated from 25° C. to 95° C. at a rate of 0.5° C. per 30 sec using a real-time PCR (rtPCR) thermocycler (BioRad) equipped with a plate reader (SynergyMx, Biotek) while monitoring the fluorescence with a Texas Red filter.

A short description of data set [2]: Intact half-life during simulated gastric fluid (SGF) digestion. The settings on record: for SGF Half-life (t½): SGF pH 1.5, pepsin:polypeptide 1:20 w/w, 37° C., intact protein; for Half-life: purified proteins, chip electrophoresis.
Data set [3] in a line: SGF digest of 168 nutritive polypeptide library, intact protein by LC-MS/MS. Format: in vitro ADME. The settings on record: for % Intact Protein at 10 min: 168 nutritive polypeptide library SGF digest, LC-MS/MS spectral counts; for % Remaining at 10 min: 168 nutritive polypeptide library, LC-MS/MS. In a few lines:
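Spectral-count ratios (10 min vs 0 min, peak gel fraction plus neighbours) give the percent of each protein left intact after SGF digestion of a pooled, IMAC-purified 168-member recombinant library. Samples were gel-fractionated, trypsinised in-gel and run on Orbitrap nanoLC-MS/MS, requiring two unique peptides at 1% FDR.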

Data set [4] in a line: pH solubility. Format: physicochemical. To be noted: for pH Range where Protein is >80% detected as Soluble and A650 <1 OD: Low: lower pH; for pH Range where Protein is >80% detected as Soluble and A650 <1 OD: High: upper pH. The protocol:
pH Solubility. […] Protein was either lyophilized and then resuspended in buffer cocktail mixtures, or concentrated and then spiked into buffer cocktail mixtures at a final protein concentration of 5 to 30 mg/ml. As a control, protein was also dissolved in a solution of 8 M urea. Protein solutions were shaken for 10 min at room temperature. Turbidity of proteins was determined by measuring the absorbance of protein solutions at 650 nm. The protein solution was then centrifuged for 10 min at 1100×g to pellet undissolved or precipitated protein. The soluble protein fraction (supernatant) was sampled and protein concentration was measured by one or more of the following methods: Coomassie Plus Protein Assay (Pierce), Chip electrophoresis, gel electrophoresis, and/or absorbance at 280 nm. The pH range over which select proteins remained greater than 80% soluble as determined by Bradford and the A650 value are listed in Table E31C.

Data set [5] deals with SEQID-00338 kinase activity (AMP + ATP→ADP). Briefly: Kinase activity of SEQID-00338 (ADP-Glo Max Assay). Format: biochemical. The settings on record: 7 μg/mL, 30 minute reaction at 30° C. As to the method: The ADP-Glo™ Max Assay was obtained from Promega (Catalog number V7001, Madison, Wis.). Adenosine Monophosphate was obtained from Sigma-Aldrich (Catalog number A1752, St. Louis, Mo.). 5× Kinase Buffer was prepared w/ 1.211 g Tris Base (Catalog number BP152-2, Fisher Bioreagents, Pittsburgh, Pa.), 692 μL 12% hydrochloric acid solution (Catalog number BDH3026-500MLP, VWR, Radnor, Pa.), 10.0 mL 500 mM magnesium chloride (Catalog number BP214-500, Fisher Bioreagents, Pittsburgh, Pa.) and the volume brought to 50 mL with MilliQ water and filtered through 0.22 μm PES filter (Catalog number SCGP00525, Millipore, Billerica, Mass.) into a sterile 50 mL tube.
Twelve his-tag purified mutant proteins and the wild-type protein at 35 μg/mL in Tris buffer were serially diluted to 7.0 and 1.4 μg/mL. Prepared kinase reaction mix at 0.5 mM AMP/0.5 mM ATP to test for activity and at 0 mM AMP/0 mM ATP to assay background activity by diluting 5× Kinase Buffer with appropriate volumes of 10 mM AMP and 10 mM ATP in MilliQ water. Duplicate reactions were prepared by mixing 9 μL of the reaction mixture with 6 μL of diluted SEQID-00338, mixing by pipetting up and down and dispensing 5 μL into a 384-well white OptiPlate (PerkinElmer, Waltham, Mass.). An ADP standard curve was prepared by serially diluting 4 mM ADP in MilliQ water and adding kinase buffer to 1× for a standard at 0.0005, 0.001, 0.005, 0.01, 0.05, 0.1, 0.5, 1, 2, 3, and 4 mM ADP. The plate was covered with a foil plate seal and incubated at 30° C. for 30 min. Following the kinase reaction, 5 μL of ADP-Glo™ Reagent was added to each well. The plate was sealed with a foil plate seal and placed on a horizontal plate shaker at 450 rpm for 2 minutes at room temperature. The plate was removed from the plate shaker and incubated at room temperature for 40 minutes. The plate was then centrifuged for 15 seconds at 1109×rcf and 10 μL of ADP-Glo™ Max Detection Reagent was added. The plate was sealed with a foil plate seal and shaken on a horizontal plate shaker at 450 rpm at room temperature for 2 minutes. The plate was then removed from the plate shaker and incubated at room temperature for 60 minutes. The plate was centrifuged for 15 seconds at 1109×rcf and the luminescence read on an EnspireAlpha plate reader (PerkinElmer, Waltham, Mass.).
The ADP standard curve was used to determine the concentration of ADP in sample wells in the presence or absence of substrate. Concentrations were determined by performing a non-linear 4 parameter logistic on the X=log(X) transformed ADP standard luminescence values. […] Where the background concentration of ADP in the absence of substrate was calculable the average of those values were subtracted from the calculated ADP concentration in the substrate incubated wells. Activity knock out was calculated by percentage activity relative to purified wild-type protein at the same concentration.
On the technique in general: In ADP-Glo the light output rises with the ADP produced.

B1: SEQID-00502: protein of the 168 nutritive polypeptide library (protein)
chain: MASQSNTKSVHDFTVKDARGNNVNLADYKGKVLLIVNVASQCGLTNSNYTELNQLYEKYKGKGLEILAFPCNQFGAQEPGTNEEIVEFACTRFKAEFPIFDKVDVNGDNAAPLYKFLKSSKGGLFGDSIKWNFSKFLVDKDGNVVDRYAPTTSPLSIEKDIKKLLDA
modifications: Glycine max
notes: protein of the 168 nutritive polypeptide library
As to B1, the Tagg is listed as 95 in data set [1] (pH 2.8); 95 in data set [1] (pH 3.7); 95^ in data set [1] (pH 4.3); 95^ in data set [1] (pH 4.6); 77 in data set [1] (pH 5.0); 77 in data set [1] (pH 5.6). Also, the results for the Tagg in data set [1] (pH 6.0), in data set [1] (pH 6.5) and in data set [1] (pH 7.1) were 76.5, 78.5 and 95, respectively. Besides, the “SGF Half-life (t½)” value in data set [2] is reported as 0.6 min. The “Half-life” value in data set [2] is 36 s. In data set [3], the “% Intact Protein at 10 min” value stood at 9.7%. Moreover, the “% Remaining at 10 min” value in data set [3] was 9.7%. Also, in data set [4], the “pH Range where Protein is >80% detected as Soluble and A650 <1 OD: Low” value (“pH Range where Protein is >80% detected … Low” for short) amounted to 7.1. Moreover, the “pH Range where Protein is >80% detected as Soluble and A650 <1 OD: Other” value (from here on “pH Range where Protein is >80% detected … Other”) in data set [4] was 2.8.

B2: SEQID-00265: nutritive polypeptide (protein, listed as Bos taurus)
chain: SEGDRLRVELAEKANKLQNELDNVSTLLEEAEKKGIKFAKDAAGLESQLQDTQELLQEETRQKLNLSSRIRQLEEERSSLQEQQEEEEEARRSLEKQLQALQAQLTDTKKKVDDDLGTIENLEEAKKKLLKDVEVLSQRLEEKALAYDKLEKTKTRLQQELDDLLVDLDHQRQIVSNLEKKQKKFDQLLAEEKNISARYAEERDRAEAEAREKETKALSLARALEEALEAREEAERQNKQLRADMEDLMSSKDDVGKNVHELEKSKRALE
In the case of B2, in data set [1], the “Tagg (pH 7.1)” value is listed as above 95. Besides, the “SGF Half-life (t½)” value in data set [2] was 29 min. For the same molecule, in data set [4], the “pH Range where Protein is >80% detected … Low” value is on record as 5.1; the “pH Range where Protein is >80% detected … Other” value is 3; the “pH Range where Protein is >80% detected as Soluble and A650 <1 OD: High” value (from here on “pH Range where Protein is >80% detected … High”) is listed as 9.1.

B3: SEQID-00622: protein of the 168 nutritive polypeptide library (protein, listed as Oryza sativa)
chain: MASEGAVSPAFAYTVVYVKDVAKSAAFYSAAFGYTVRRLDQSHKWAELESGTTTIAFTPLHQRETDALTGAVQLPDSAGERGPVEICFDYADVDAAYRRAVDSGAVPVSPPEQKSWGQKVGYVRDIDGIIVRMGSHVRA
modifications: source: /note="subsp. japonica"
notes: as for B1
As to B3, the Tagg is listed as 58.5 in data set [1] (pH 2.8); 42 in data set [1] (pH 3.7); 42 in data set [1] (pH 3.9); 43.5 in data set [1] (pH 4.3); 43.5 in data set [1] (pH 4.6); 42.5 in data set [1] (pH 5.0). Besides, the Tagg was 45.5 in data set [1] (pH 5.6), 46 in data set [1] (pH 6.0), 47 in data set [1] (pH 6.5) and 95 in data set [1] (pH 7.1). In data set [2], the “SGF Half-life (t½)” value is 6.6 min. In data set [2], the “Half-life” value is 396 s. Also, the “% Intact Protein at 10 min” value in data set [3] came to 43.6%. Further, the “% Remaining at 10 min” value in data set [3] is listed as 43.6%. Also, in data set [4], the “pH Range where Protein is >80% detected … Low” value came out at 2.8. The “pH Range where Protein is >80% detected … High” value in data set [4] was 7.1.

B4: SEQID-00511: protein of the 168 nutritive polypeptide library (protein)
chain: MVLFGFGKKKSLPKPEEALPGRDRVMSVPDRHYINGNPLKPPFPEGMEQAVFGLGCFWGAERKFWQQQGVFSTAVGYAGGYTKNPTYEEVCSGMTGHTEVVLVVFDPKVISYTDLLKLFWESHNPTQGMRQGNDTGTQYRSAIYTYSDEQQRLALASRDRYQQALSAASYGEITTEIAPAQEFYYAEAYHQQYLGKNPNGYCGLGGTGVGCPAMTETSV
modifications: Arthrospira platensis C1
notes: as for B1
On to B4, for which the Tagg in data set [1] (pH 6.0) came to 39.5. Further, the Tagg in data set [1] (pH 6.5) is on record as 45.5. Besides, the Tagg in data set [1] (pH 7.1) was 42. Also, in data set [2], the “SGF Half-life (t½)” value was 0.3 min and the “Half-life” value is 18 s. For the same molecule, in data set [3], the “% Intact Protein at 10 min” value was 4.3% and the “% Remaining at 10 min” value is on record as 4.3%. Moreover, in data set [4], the “pH Range where Protein is >80% detected … Low” value was determined as 5.6; the “pH Range where Protein is >80% detected … High” value amounted to 7.1.

B5: SEQID-00510: nutritive polypeptide naturally produced in Turkey, recombinantly expressed in E. coli (protein)
chain: MVPIAEKMAEKQEEPSNTQNGEPDNAEEGEGKKKKKVKREDLPPFEIVTGERLPAIFFKFQFRNVEYSSGRNKTFLCYVVETQGKESTTSRGYLEDEHAASHAEIAFFNTILPKCESSLRYNITWYVSSSPCVTCADRISETLRKNKNLRLTIMVGRLFMWEEPEMQAALKKMKSAGCKLRIMKPQDFEYVWQNFVEQEEGEEAKAFVPWEDIQENFQYYEEKLAEILQ
modifications: Meleagris gallopavo
notes: nutritive polypeptide naturally produced in Turkey, recombinantly expressed in E. coli
As to B5, in data set [1], the “Tagg (pH 7.1)” value was 57.5. Besides, in data set [2], the “SGF Half-life (t½)” value is 0.3 min and the “Half-life” value was 18 s. In addition, in data set [3], the “% Intact Protein at 10 min” value was 13.4% and the “% Remaining at 10 min” value came to 13.4%. Besides, in data set [4], the “pH Range where Protein is >80% detected … Low” value was 6.5; the “pH Range where Protein is >80% detected … Other” value was 2.8; the “pH Range where Protein is >80% detected … High” value stood at 7.1.

B6: R134M: single amino acid mutant of SEQID-00338, substrate binding position 134 (protein, listed as Saccharomyces cerevisiae)
chain: MSSSESIRMVLIGPPGAGKGTQAPNLQERFHAAHLATGDMLRSQIAKGTQLGLEAKKIMDQGGLVSDDIMVNMIKDELTNNPACKNGFILDGFPRTIPQAEKLDQMLKEQGTPLEKAIELKVDDELLVARITGMLIHPASGRSYHKIFNPPKEDMKDDVTGEALVQRSDDNADALKKRLAAYHAQTEPIVDFYKKTGIWAGVDASQPPATVWADILNKLGKD
modifications: source: /note="strain ATCC 204508 / S288c"
Turning to B6, the “AVG percent activity relative to purified wild-type protein” value in data set [5] came out at 0.3%.

B7: SEQID-00269: nutritive polypeptide (protein)
chain: DLKKKLDDDLGTLENLEELKKKLLKDLELLSQRLEELALAYDKLEKTKTRLQQELDDLLLDLDHQ
Consider B7, for which the “Tagg (pH 7.1)” value in data set [1] is on record as above 95. In data set [2], the “SGF Half-life (t½)” value is on record as 41 min. Besides, in data set [4], the “pH Range where Protein is >80% detected … Low” value amounted to 7.2; the “pH Range where Protein is >80% detected … High” value is listed as 9.1.

The values are drawn from US20160228506A1, “Compositions and Formulations for Prevention and Reduction of Tumorigenesis, Cancer Cell Proliferation and Invasion, and Methods of Production and Use Thereof in Cancer Treatment” (PRONUTRIA, INC., priority 2013, published 2016).
